Results as given in the supplement of paper PMC7877785.
± gives the uncertainty stated by the source.

Test: self-splicing fitness, log relative to wild type (ln ratio); higher = more splicing; Tetrahymena group I intron in knt gene, E. coli kanamycin selection, DiMSum; sequences stand for … in CUCUCU…GGAGGGAAAAGUUAUCAGGCAUGCACCUGGUAGCUAGUCUUUAAACCAAUAGAUUGCAUCGGUUUAAAAGGCAAGACCGUCAAAUUGCGGGAAAGGGGUCAACAGCCGUUCAGUACCAAGUCUCAGGGGAAACUUUGAGAUGGCCUUGCAAAGGGUAUGGUAAUAAGCUGACGGACAUGGUCCUAACCACGCAGCCAAGUCCUAAGUCAACAGAUCUUCUGUUGAUAUGGAUGCAGUUCACAGACUAAAUGUCGGUCGGGGAAGAUGUAUUCUUCUCAUAAGAUAUAGUCGGACCUCUCCUUAAUGGGAGCUAGCGGAUGAAGUGAUGCAACACUGGAGCCGCUGGGAACUAAUUUGUAUGCGAAAGUAUAUUGAUUAGUUUUGGAGUACUCGUGGUCG
Summary of the method: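 Six replicate transformations of E. coli BL21(DE3) with a pET-22b(+) library were grown overnight at 37°C or 30°C. The library randomised all eight P1ex-region intron nucleotides, the intron lying in the knt kanamycin-resistance gene, and plates were LB agar with or without 25 μg/mL kanamycin plus 100 μg/mL carbenicillin, 50 μM IPTG and 0.2% rhamnose. Pooled colonies were amplicon-sequenced on an Illumina HiSeq 2500, and fitness is the DiMSum error-weighted combination of wild-type-normalised replicate fold changes, kanamycin versus none.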

Row | Sequence | self-splicing fitness (ln) (30 °C) | self-splicing fitness (ln) (37 °C)
1 | AGUCAGCAAUAUUACGGGUA | -2.02 ± 0.15 | -1.54 ± 0.14
2 | AGUCAGCAAUAUUACGUCCA | -1.25 ± 0.13 | -1.05 ± 0.15
3 | AGUCAGCAAUAUUACGUCGU | -0.476 ± 0.049 | -0.105 ± 0.064
4 | AGUCAGCAAUAUUACGUGAA | -1.5 ± 0.065 | -1.09 ± 0.082
5 | AGUCAGCAAUAUUACGUUCA | -1.5 ± 0.099 | -0.803 ± 0.081
6 | AGUCAGCAAUAUUACGUUCU | -0.318 ± 0.072 | 0.0939 ± 0.11
7 | AGUCAGCAAUAUUACGUUUU | -1.49 ± 0.074 | -0.278 ± 0.088
8 | AGUGAGCAAUAUUACGAAGA | -2.9 ± 0.35 | -1.85 ± 0.18
9 | AGUGAGCAAUAUUACGAAUA |  | -1.17 ± 0.22
10 | AGUGAGCAAUAUUACGACAC | -2.16 ± 0.29 | -1.64 ± 0.17
11 | AGUGAGCAAUAUUACGACAG | -2.83 ± 0.33 | -1.67 ± 0.34
12 | AGUGAGCAAUAUUACGACCU | -1.32 ± 0.15 | -0.41 ± 0.2
13 | AGUGAGCAAUAUUACGACUA | -1.06 ± 0.17 | -0.32 ± 0.15
14 | AGUGAGCAAUAUUACGACUG | -0.0618 ± 0.23 | 0.551 ± 0.31
15 | AGUGAGCAAUAUUACGAGUU | -2.21 ± 0.18 | -1.28 ± 0.18
16 | AGUGAGCAAUAUUACGAUGC | -2.29 ± 0.28 | -3.16 ± 0.43
17 | AGUGAGCAAUAUUACGAUGG | -3.11 ± 0.24 | -2.26 ± 0.25
18 | AGUGAGCAAUAUUACGCAGU | -3.01 ± 0.24 | -0.67 ± 0.2
19 | AGUGAGCAAUAUUACGCCUA | -3 ± 0.3 | -0.802 ± 0.18
20 | AGUGAGCAAUAUUACGCUAU | -3.19 ± 0.23 | -2.43 ± 0.42

Row | Sequence | self-splicing fitness (ln) (30 °C) | self-splicing fitness (ln) (37 °C)
21 | AGUGAGCAAUAUUACGCUCU |  | -2.1 ± 0.34
22 | AGUGAGCAAUAUUACGGUAA |  | -1.43 ± 0.34
23 | AGUGAGCAAUAUUACGGUAU | -3.9 ± 0.23 | -2.31 ± 0.24
24 | AGUGAGCAAUAUUACGGUCC | -0.948 ± 0.12 | -0.741 ± 0.15
25 | AGUGAGCAAUAUUACGGUCU | -0.639 ± 0.11 | -0.463 ± 0.12
26 | AGUGAGCAAUAUUACGUAGA | -3.84 ± 0.23 | -3.38 ± 0.32
27 | AGUUAGCAAUAUUACGAACG | -0.391 ± 0.088 | 0.572 ± 0.14
28 | AGUUAGCAAUAUUACGAAUC | -2.57 ± 0.15 | -2.03 ± 0.21
29 | AGUUAGCAAUAUUACGACUG | -0.637 ± 0.13 | -0.00615 ± 0.18
30 | AGUUAGCAAUAUUACGAGUC | -2.76 ± 0.33 | -3.27 ± 0.47
31 | AGUUAGCAAUAUUACGAGUG | -3.77 ± 0.31 | -1.78 ± 0.25
32 | AGUUAGCAAUAUUACGAUAU | -1.55 ± 0.16 | -0.311 ± 0.19
33 | AGUUAGCAAUAUUACGAUGA | -1.32 ± 0.18 | -0.239 ± 0.16
34 | AGUUAGCAAUAUUACGAUUC | -2.04 ± 0.24 | -0.169 ± 0.26
35 | AGUUAGCAAUAUUACGCAGC | -2.29 ± 0.16 | -1.18 ± 0.16
36 | AGUUAGCAAUAUUACGCCCU | -0.19 ± 0.12 | -0.312 ± 0.15
37 | AGUUAGCAAUAUUACGCGUA | -1.77 ± 0.22 | -0.709 ± 0.15
38 | AGUUAGCAAUAUUACGGACG | -0.568 ± 0.16 | 0.616 ± 0.18
39 | AGUUAGCAAUAUUACGGCCC | -0.803 ± 0.33 | 
